Results published in paper PMC2173631 (The Journal of Cell Biology, 2003).

T1: DAGLβ (Mus musculus, UniProt Q91WC9)
T1 sequence (Q91WC9 1-669): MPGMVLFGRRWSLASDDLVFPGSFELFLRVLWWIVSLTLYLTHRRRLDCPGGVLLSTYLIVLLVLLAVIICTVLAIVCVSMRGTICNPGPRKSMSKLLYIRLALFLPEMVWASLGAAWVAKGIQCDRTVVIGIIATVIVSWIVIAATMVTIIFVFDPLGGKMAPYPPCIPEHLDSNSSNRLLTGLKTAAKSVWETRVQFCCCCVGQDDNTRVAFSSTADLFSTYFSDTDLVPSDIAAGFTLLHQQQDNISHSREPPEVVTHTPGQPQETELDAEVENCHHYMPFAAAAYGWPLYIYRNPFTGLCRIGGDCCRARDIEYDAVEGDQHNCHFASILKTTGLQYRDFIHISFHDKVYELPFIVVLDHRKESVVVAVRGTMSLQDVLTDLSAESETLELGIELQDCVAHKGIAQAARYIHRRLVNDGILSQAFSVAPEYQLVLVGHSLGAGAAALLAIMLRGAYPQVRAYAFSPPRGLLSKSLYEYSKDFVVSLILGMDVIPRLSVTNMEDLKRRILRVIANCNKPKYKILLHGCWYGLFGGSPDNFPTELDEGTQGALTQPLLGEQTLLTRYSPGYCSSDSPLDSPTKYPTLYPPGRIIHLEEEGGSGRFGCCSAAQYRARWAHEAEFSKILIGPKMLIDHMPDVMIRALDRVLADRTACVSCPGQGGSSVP

B1: DAGLα (Homo sapiens) (protein)
chain: MPGIVVFRRRWSVGSDDLVLPAIFLFLLHTTWFVILSVVLFGLVYNPHEACSLNLVDHGRGYLGILLSCMIAEMAIIWLSMRGGILYTEPRDSMQYVLYVRLAILVIEFIYAIVGIVWLTQYYTSCNDLTAKNVTLGMVVCNWVVILSVCITVLCVFDPTGRTFVKLRATKRRQRNLRTYNLRHRLEEGQATSWSRRLKVFLCCTRTKDSQSDAYSEIAYLFAEFFRDLDIVPSDIIAGLVLLRQRQRAKRNAVLDEANNDILAFLSGMPVTRNTKYLDLKNSQEMLRYKEVCYYMLFALAAYGWPMYLMRKPACGLCQLARSCSCCLCPARPRFAPGVTIEEDNCCGCNAIAIRRHFLDENMTAVDIVYTSCHDAVYETPFYVAVDHDKKKVVISIRGTLSPKDALTDLTGDAERLPVEGHHGTWLGHKGMVLSAEYIKKKLEQEMVLSQAFGRDLGRGTKHYGLIVVGHSLGAGTAAILSFLLRPQYPTLKCFAYSPPGGLLSEDAMEYSKEFVTAVVLGKDLVPRIGLSQLEGFRRQLLDVLQRSTKPKWRIIVGATKCIPKSELPEEVEVTTLASTRLWTHPSDLTIALSASTPLYPPGRIIHVVHNHPAEQCCCCEQEEPTYFAIWGDNKAFNEVIISPAMLHEHLPYVVMEGLNKVLENYNKGKTALLSAAKVMVSPTEVDLTPELIFQQQPLPTGPPMPTGLALELPTADHRNSSVRSKSQSEMSLEGFSEGRLLSPVVAAAARQDPVELLLLSTQERLAAELQARRAPLATMESLSDTESLYSFDSRRSSGFRSIRGSPSLHAVLERDEGHLFYIDPAIPEENPSLSSRTELLAADSLSKHSQDTQPLEAALGSGGVTPERPPSAAANDEEEEVGGGGGGPASRGELALHNGRLGDSPSPQVLEFAEFIDSLFNLDSKSSSFQDLYCMVVPESPTSDYAEGPKSPSQQEILLRAQFEPNLVPKPPRLFAGSADPSSGISLSPSFPLSSSGELMDLTPTGLSSQECLAADKIRTSTPTGHGASPAKQDELVISAR
B2: DAGLβ (Mus musculus) (protein)
chain: T1 sequence (Q91WC9 1-669)

How the values were obtained:
DAGLβ = target: T1, DAGLβ; assay: radiolabeled DAG hydrolysis assay, homogenates of transfected COS cells; assay type: biochemical
[1] = substrate: CCCCC/C=C\C/C=C\C/C=C\C/C=C\CCCC(=O)O[C@@H](CO)COC(=O)CCCCCCCCCCCCCCCCC; assay: cells, lysate or membranes

Row | Molecule | IC50 (DAGLβ) [nM] | Km [1] [µM]
1 | CCCCCCCCCCC[C@@H](C[C@@H]1OC(=O)[C@H]1CCCCCC)OC(=O)[C@H](CC(C)C)NC=O [THL, tetrahydrolipstatin] | 100 | 
2 | B1 |  | 154.7 ± 19.1
3 | B2 |  | 74.1 ± 4.9
